From patent US20090311265A1 (CRUCELL HOLLAND B V, published 2009)
Numbering of substitutions follows the chain as printed.

B1: CR6141 (antibody, V domains shown)
VH: EVQLVQSGAEVKKPGASVKVSCKASGYTFTGYYVYWVRQAPGQGLEWMGWISAYNGNTNYAQKFQGRVTITADKSTSTAYMELSSLRSEDTAVYYCARSRSLDVWGQGTTVTVSS
VL: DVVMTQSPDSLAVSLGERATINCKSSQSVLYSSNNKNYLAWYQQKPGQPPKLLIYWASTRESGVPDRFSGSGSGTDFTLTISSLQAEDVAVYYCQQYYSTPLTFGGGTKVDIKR
B2: CR6325 (antibody, V domains shown)
VH: EVQLVESGAEVKKPGSSVKVSCKASGGTFSFYSMSWVRQAPGQGLEWMGGIIPMFGTTNYAQKFQGRVTITAVESTSTAYMEVSSLRSEDTAVYYCARGDKGIYYYYMDVWGKGTTVTVSS
VL: QSALTQPASVSGSPGQSITISCTGTSSDVGGYNYVSWYQQHPGKAPKLMIYEVSNRPSGVSNRFSGSKSGNTASLTISGLQAEDEADYYCSSYTSSSTLVFGTGTKVTVLG
B3: CR6332 (antibody, V domains shown)
VH: QVQLVQSGAEVKKPGSSVKVSCKASGGPFRNFAINWVRQAPGQGLEWMGGIIAVFGTTKYAHKFQGRVTITADDSTNTAYMELGSLKSEDTAVYYCARGPHYYSSYMDVWGEGTTVTVSS
VL: DIQLTQSPSSLSASVGDRVTITCRASQGISTYLAWYQQKPGKVPKLLIYAASTLQSGVPSRFSGSGSGTDFTLTISSLQPEDVATYYCQKYNSAPSFGPGTKVDIKR
B4: CR6268 (antibody, V domains shown)
VH: QVQLVQSGAEVKKPGSSVKVSCKASGGTFSSYAISWVRQAPGQGLEWMGGIMGMFGTTNYAQKFQGRVTITADEFTSAAYMELRSLRSEDTAVYYCARSSGYYPEYFQDWGQGTLVTVSS
VL: QSVLTQPPSESVSPGQTASVTCSGHKLGDKYVSWYQQKPGQSPVLLIYQDNRRPSGIPERFIGSNSGNTATLTISGTQALDEADYYCQAWDSSTAVFGGGTKLTVLG
B5: CR6336 (antibody, V domains shown)
VH: B4 VH with V2M, M52F, T58A, R84S, R87G, V93M, E105Q
VL: EIVMTQSPGTLSLSPGQRATLSCRASQSVSSSYLAWYQQKPGQAPRLLMYGASSRATGIPDRFSGSGSGTDFTLTISRLEPEDFAVYYCQQYGSSSLTFGGGTKLEIKR
B6: CR6329 (antibody, V domains shown)
VH: EVQLVQSGAEVKKPGSSVKVSCKASGGIFRSNSISWVRQAPGQGLEWMGGIFALFGTTDYAQKFQGRVTITADESSTTVYLELSSLTSEDTAVYYCARGSGYTTRNYFDYWGQGTLVTVSS
VL: B5 VL with M4L, Q17E, S32N, A35G, M49I, T57S, S66G, S96P, L105V
B7: CR6328 (antibody, V domains shown)
VH: EVQLVESGAEVKKPGSSVKVSCKASGHIFSGYAISWVRQAPGQGLEWMGGIIPIFGTTNYAQKFQGRVTITADQSTSTAYMDLSNLRSEDTAVYYCARVKDGYCTLTSCPVGWYFDLWGRGTLVTVSS
VL: not shown
B8: CR6334 (antibody, V domains shown)
VH: EVQLVETGAEVKKPGSSVKVPCKSSGSPFRSNAVSWVRQAPGQGLEWVGGILGVFGSPSYAQKFQGRVTITADESTNTVHMELRGLRSEDTAVYYCARGPTYYYSYMDVWGKGTTVTVSS
VL: SYVLTQPPSESVAPGQTARITCGGNNIGRNSVHWYQQKPGQAPVLVVYDDSDRPSGIPERFSGSKSGNTATLIISRVEVGDEADYYCQVWHSSSDHYVFGTGTKVTVLG
B9: CR6327 (antibody, V domains shown)
VH: EVQLVETGAEVKKPGSSVKVSCKASGGTFRTHAISWVRQAPGQGLEWMGGIIAIFGTANYAQKFQGRITITADESTSTAYMELSSLRSEDTAVYFCARGSGYHISTPFDNWGQGTLVTVSS
VL: SYVLTQPPSVSVAPGQTARITCGGNNIGSKGVHWYQQKPGQAPVLVVYDDSDRPSGIPERFSGSNSGNTATLTISRVEAGDEADYYCQVWDSSSDHVVFGGGTKLTVLG
B10: CR6331 (antibody, V domains shown)
VH: EVQLVESGAEVKKPGSSVKVSCKASGGTFSSYAISWVRQAPGQGLEWMGGIIGMFGTANYAQKFQGRVTITADEFTSTAYMELSSLRSEDTAVYYCARGNYYYESSLDYWGQGTLVTVSS
VL: B9 VL with S1Q, Y2S, L4V, G31S, V97Y, G101T, L105V
B11: CR6344 (antibody, V domains shown)
VH: QVQLVQSGAEVKKPGSSVRVSCKASGSIFRNYAMSWVRQAPGQGLEWMGGIIAIFGTPKYAQKFQGRVTITADESTSTVYMELSGLRSEDTAMYYCARIPHYNFGSGSYFDYWGQGTLVTVSS
VL: TVLTQPPSVSGAPGQRVTISCTGSSSNIGAGYDVHWYQQLPGTAPKLLIYGNSNRPSGVPDRFSGSKSGTSATLGITGLQTGDEADYYCGTWDSSLSAYVFGTGTKVTVLG
B12: CR6255 (antibody, V domains shown)
VH: EVQLVESGAEVKKPGSSVKVSCKASGGPFRSYAISWVRQAPGQGPEWMGGIIPIFGTTKYAPKFQGRVTITADDFAGTVYMELSSLRSEDTAMYYCAKHMGYQVRETMDVWGKGTTVTVSS
VL: SYVLTQPPSASGTPGQRVTISCSGSTFNIGSNAVDWYRQLPGTAPKLLIYSNNQRPSGVPDRFSGSRSGTSASLAISGLQSEDEADYYCAAWDDILNVPVFGGGTKLTVLG
B13: CR6257 (antibody, V domains shown)
VH: B12 VH with E1Q, E6Q
VL: B2 VL with S9A, L99Y
B14: CR6314 (antibody, V domains shown)
VH: B12 VH
VL: SYVLTQPPSASGTPGQRVTISCSGSSSNIGSNYVYWYQQLPGTAPKLLIYRDGQRPSGVPDRFSGSKSGTSASLAISGLRSDDEADYYCATWDDNLSGPVFGGGTKLTVLG
B15: CR6261 (antibody, V domains shown)
VH: B12 VH
VL: QSVLTQPPSVSAAPGQKVTISCSGSSSNIGNDYVSWYQQLPGTAPKLLIYDNNKRPSGIPDRFSGSKSGTSATLGITGLQTGDEANYYCATWDRRPTAYVVFGGGTKLTVLG
B16: CR6260 (antibody, V domains shown)
VH: B12 VH
VL: SYVLTQPPSVSGTPGQRVTISCSGSRSNVGDNSVYWYQHVPEMAPKLLVYKNTQRPSGVPARFSGSKSGTSASLAIIGLQSGDEADYYCVAWDDSVDGYVFGSGTKVTVLG
B17: CR6310 (antibody, V domains shown)
VH: B12 VH
VL: B9 VL with G31S, V97A, K104Q
B18: CR6262 (antibody, V domains shown)
VH: QVQLQQSGAEVKKPGSSVKVSCKVSGVIFSGSAISWVRQAPGQGLEWMGGISPLFGTTNYAQKFQGRVTITADQSTNTTYMEVNSLRYEDTAVYFCARGPKYYSEYMDVWGKGTTVTVSS
VL: DIQMTQSPSSLSASVGDRVTITCRASQGISSYLAWYQQKPGKVPTLLIYDASTLRSGVPSRFSGSGSATDFTLTISSLQPEDVATYYCQRYNSAPPITFGQGTRLEIKR

Target: soluble recombinant HA (sHA) of H5N1TV (influenza A virus A/Vietnam/1194/2004 …, UniProt Q6J8F6 17-528)
Experiment: immunoblot (data not shown)

B1: binds.

Target: recombinant HA, subtype H3 (A/Wyoming/3/2003(H3N2)) (influenza A virus A/Wyoming/3/2003 …)
Experiment: ELISA, coated HA, IgG 5 µg/ml

In order of rising “OD 492 nm” value:
1. B10  0.06 OD 492 nm
2. B2  0.07 OD 492 nm
3. B7  0.07 OD 492 nm
4. B8  0.07 OD 492 nm
5. B14  0.07 OD 492 nm
6. B15  0.07 OD 492 nm
7. B4  0.08 OD 492 nm
8. B6  0.08 OD 492 nm
9. B9  0.08 OD 492 nm
10. B12  0.08 OD 492 nm
11. B13  0.08 OD 492 nm
12. B16  0.08 OD 492 nm
13. B17  0.08 OD 492 nm
14. B11  0.09 OD 492 nm
15. B18  0.09 OD 492 nm
16. B5  0.1 OD 492 nm
17. B3  0.15 OD 492 nm

Target: recombinant HA, subtype H5 (A/Vietnam/1203/2004 (H5N1)) (influenza A virus A/Vietnam/1203/2004 …, UniProt Q80A26 6-554)
Experiment: ELISA, coated HA, IgG 5 µg/ml

In order of falling “OD 492 nm” value:
1. B7  1.78 OD 492 nm
2. B3  1.65 OD 492 nm
3. B14  1.48 OD 492 nm
4. B16  1.45 OD 492 nm
5. B12  1.44 OD 492 nm
6. B5  1.41 OD 492 nm
7. B13  1.37 OD 492 nm
8. B17  1.37 OD 492 nm
9. B10  1.32 OD 492 nm
10. B11  1.31 OD 492 nm
11. B4  1.3 OD 492 nm
12. B8  1.19 OD 492 nm
13. B9  1.11 OD 492 nm
14. B18  1.02 OD 492 nm

Target: recombinant HA, subtype H1 (A/New Caledonia/20/99 (H1N1)) (influenza A virus A/New Caledonia/20/99 …, UniProt Q289M7 18-565)
Experiment: ELISA, coated HA, IgG 5 µg/ml

In order of falling “OD 492 nm” value:
1. B7  2.43 OD 492 nm
2. B3  2.2 OD 492 nm
3. B8  2.04 OD 492 nm
4. B13  1.93 OD 492 nm
5. B14  1.93 OD 492 nm
6. B5  1.92 OD 492 nm
7. B12  1.91 OD 492 nm
8. B11  1.8 OD 492 nm
9. B4  1.78 OD 492 nm
10. B18  1.48 OD 492 nm

Target: full-length HA from isolate A/Vietnam/1194/2004 (H5N1TV) on PER.C6 cells (influenza A virus A/Vietnam/1194/2004 …, UniProt Q80A26 6-554)
Experiment: flow cytometry, transfected PER.C6 cells

In order of rising “flow cytometry signal at 0.1 µg/ml” value:
1. B18  8.06
2. B16  31.1
3. B4  43.7
4. B14  44.5
5. B12  60.4
6. B13  62.1
7. B11  107

In order of falling “flow cytometry signal at 1 µg/ml” value:
1. B11  328
2. B13  284
3. B12  257
4. B4  219
5. B16  168
6. B14  167
7. B18  20.9

In order of falling “flow cytometry signal at 10 µg/ml” value:
1. B11  768
2. B4  422
3. B12  414
4. B14  400
5. B13  365
6. B16  323
7. B18  84.3
